Experimental data taken from US12076390 (Dana-Farber, dated 2024).

What was measured:
[1] = molecular target: Cell surface-expressed HA of A/Aichi/2/68 (H3-A2/68) (influenza A virus A/Aichi/2/68 (H3N2), UniProt P03437 17-566); assay: flow cytometry on HA-transfected cells
[2] = molecular target: DTT reduced, trimeric HA2 (tHA2) of surface-expressed H3-A2/68 (influenza A virus A/Aichi/2/68 (H3N2), UniProt P03437 346-566); assay: flow cytometry on HA-transfected cells after trypsin, pH 4.9 and DTT
[3] = molecular target: HA of A/Vietnam/1203/04 on pseudotyped virus (H5-VN04 pseudovirus) (influenza A virus A/Vietnam/1203/04 …); assay: cell-based or functional assay
[4] = molecular target: HA on infectious virus A/Brisbane/10/07 (H3N2-BR07) (influenza A virus A/Brisbane/10/07 …); assay: cell-based or functional assay
[5] = molecular target: Recombinant full length HA of H1 A/Puerto Rico/8/34 (H1-PR8) (influenza A virus A/Puerto Rico/8/34 …, UniProt P03452 18-565); assay: recombinant HA; footnote says SPR biosensor, methods describe BLI
[6] = molecular target: Recombinant full length HA of H1 A/Solomon Islands/3/06 (H1-SI06) (influenza A virus A/Solomon …); assay: as above
[7] = molecular target: Recombinant full length HA of H14 A/mallard/Astrakhan/263/82 (H14-AS82) (influenza A virus …, UniProt P26136 18-568); assay: as above

B1: 3I14 IgG1 (antibody, V domains shown)
VH: QVQLLESGGGVVQPGRSLRLSCAASGFTFSNYGMHWVRQAPGKGLEWVAIISFDGSKKYYANSVKGRSTISRDNSKNTLSLQMNSLGPEDTALYYCAKLPSPYYFDSRFVWVAASAFHFWGQGILVTVSS
VL: NFMLTQPPSASGTPGQRVTISCSGSSSNIGGNTVHWFQQLPGTAPKLLIYTNSLRPSGVPDRFSGSKSGTSASLAISGLQSEDEADYYCAAWDDSLNGQVFGGGTKLTVL
[1]
  binding result: binds
[2]
  binding result: no binding
[3]
  IC50, neutralization of H5-VN04 pseudovirus: 0.0816 µg/mL
  IC50, neutralization of pseudovirus: 2.14 µg/mL
[4]
  IC50, neutralization of infectious H3-BR07 virus: 0.305 µg/mL
[5]
  Kd: 0.08 nM
[6]
  Kd: 0.03 nM
[7]
  Kd: 0.29 nM
